According to publication PMC10786891, “Massively parallel profiling of RNA-targeting CRISPR-Cas13d”:

Target: T1, EsCas13d, nuclease-dead (Eubacterium siraeum, UniProt B0MS50, R295A;H300A;R849A;H854A)
T1 sequence: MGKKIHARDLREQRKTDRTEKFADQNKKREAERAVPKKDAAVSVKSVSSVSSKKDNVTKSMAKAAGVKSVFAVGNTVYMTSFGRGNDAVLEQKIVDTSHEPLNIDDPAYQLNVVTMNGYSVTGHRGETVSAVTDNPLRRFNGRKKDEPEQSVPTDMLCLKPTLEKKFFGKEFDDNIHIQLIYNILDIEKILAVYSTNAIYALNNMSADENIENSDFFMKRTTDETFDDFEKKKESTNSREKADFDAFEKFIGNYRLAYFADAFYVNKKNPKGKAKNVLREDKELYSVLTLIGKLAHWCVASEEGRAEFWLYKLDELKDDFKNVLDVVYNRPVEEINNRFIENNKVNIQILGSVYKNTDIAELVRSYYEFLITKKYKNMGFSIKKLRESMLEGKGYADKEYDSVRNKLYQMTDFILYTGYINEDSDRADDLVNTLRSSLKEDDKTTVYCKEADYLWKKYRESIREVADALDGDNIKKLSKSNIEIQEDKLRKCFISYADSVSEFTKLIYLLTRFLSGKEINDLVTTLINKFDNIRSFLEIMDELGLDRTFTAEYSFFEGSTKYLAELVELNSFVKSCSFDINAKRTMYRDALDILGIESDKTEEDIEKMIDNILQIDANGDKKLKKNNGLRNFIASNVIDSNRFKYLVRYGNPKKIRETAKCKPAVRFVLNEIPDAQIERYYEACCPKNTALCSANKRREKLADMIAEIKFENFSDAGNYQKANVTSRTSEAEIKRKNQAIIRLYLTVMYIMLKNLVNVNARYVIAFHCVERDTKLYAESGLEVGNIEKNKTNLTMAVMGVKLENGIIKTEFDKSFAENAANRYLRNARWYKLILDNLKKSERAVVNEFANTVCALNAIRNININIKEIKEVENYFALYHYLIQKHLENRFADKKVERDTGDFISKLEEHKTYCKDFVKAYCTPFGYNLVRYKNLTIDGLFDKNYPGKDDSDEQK
Test: crRNA (strand 1, pre-loaded); Mg2+; 40 mM Tris-HCl pH 7.5, 150 mM NaCl, 6 mM MgCl2, 1 mM DTT, 0.1% Tween-20, 0.2 mg/ml BSA; 25 C; 10 min per concentration, then washed
Conditions: tags: His6-TwinStrep-SUMO cleaved; N-terminal SNAP kept (SNAP-Surface 488); label: 3' end held by stalled T7 RNA polymerase

B1: target 1 insA 3' of 15,insC 3' of 5 (mixed)
RNA 1: CACCCGUGCAAAAAUGCAGGGGUCUAAAACUGAGCGGAUAACCUCUCUAUGG
RNA 2: GGGAAUGGAUCCACAUCUACGAAUUCGUACCAUAGAGAAGGUUAUCCGCCUCACCGAGAUCGGAAGAGCACACGU
  Kd: 16.7 ± 1.4 nM

B2: target 3 insG 3' of 6,insG 3' of 1 (mixed)
RNA 1: CACCCGUGCAAAAUUGCAGGGGUCUAAAACGACCUGAAUAUUUCAGAUCAAA
RNA 2: GGGAAUGGAUCCACAUCUACGAAUUCGUUUUUGAUCUGAAAUAUUCGAGGUCGUGCAGAUCGGAAGAGCACACGU
  Kd: 25 ± 10.5 nM

B3: target 3 A11C,G14A (mixed)
RNA 1: CACCCGUGCAAAAUUGCAGGGGUCUAAAACGACCUGAAUAUUUCAGAUCAAA
RNA 2: GGGAAUGGAUCCACAUCUACGAAUUCGUUUUUGAUCUAAACUAUUCAGGUCUGCAGAUCGGAAGAGCACACGU
  Kd: 51 ± 10 nM

B4: target 3 insG 3' of 6,insU 3' of 1 (mixed)
RNA 1: CACCCGUGCAAAAUUGCAGGGGUCUAAAACGACCUGAAUAUUUCAGAUCAAA
RNA 2: GGGAAUGGAUCCACAUCUACGAAUUCGUUUUUGAUCUGAAAUAUUCGAGGUCUUGCAGAUCGGAAGAGCACACGU
  Kd: 56.5 ± 15 nM

B5: target 3 del6,del22 (mixed)
RNA 1: CACCCGUGCAAAAUUGCAGGGGUCUAAAACGACCUGAAUAUUUCAGAUCAAA
RNA 2: GGGAAUGGAUCCACAUCUACGAAUUCGUUUUGAUCUGAAAUAUUAGGUCUGCAGAUCGGAAGAGCACACGU
  Kd: 19.4 ± 1.9 nM

B6: target 3 complement block 1-6 (mixed)
RNA 1: CACCCGUGCAAAAUUGCAGGGGUCUAAAACGACCUGAAUAUUUCAGAUCAAA
RNA 2: GGGAAUGGAUCCACAUCUACGAAUUCGUUUUUGAUCUGAAAUAUUGUCCAGUGCAGAUCGGAAGAGCACACGU
  Kd: 28.5 ± 4.5 nM

B7: target 3 insG 3' of 8,insU 3' of 4 (mixed)
RNA 1: CACCCGUGCAAAAUUGCAGGGGUCUAAAACGACCUGAAUAUUUCAGAUCAAA
RNA 2: GGGAAUGGAUCCACAUCUACGAAUUCGUUUUUGAUCUGAAAUAUGUCAGUGUCUGCAGAUCGGAAGAGCACACGU
  Kd: 21.2 ± 4.45 nM

B8: target 3 G19C,U20G (mixed)
RNA 1: CACCCGUGCAAAAUUGCAGGGGUCUAAAACGACCUGAAUAUUUCAGAUCAAA
RNA 2: GGGAAUGGAUCCACAUCUACGAAUUCGUUUUGCAUCUGAAAUAUUCAGGUCUGCAGAUCGGAAGAGCACACGU
  Kd: ~49 nM

B9: target 3 complement block 2-6 (mixed)
RNA 1: CACCCGUGCAAAAUUGCAGGGGUCUAAAACGACCUGAAUAUUUCAGAUCAAA
RNA 2: GGGAAUGGAUCCACAUCUACGAAUUCGUUUUUGAUCUGAAAUAUUGUCCACUGCAGAUCGGAAGAGCACACGU
  Kd: 58.5 ± 9 nM

B10: target 3 U2A,A5U (mixed)
RNA 1: CACCCGUGCAAAAUUGCAGGGGUCUAAAACGACCUGAAUAUUUCAGAUCAAA
RNA 2: GGGAAUGGAUCCACAUCUACGAAUUCGUUUUUGAUCUGAAAUAUUCUGGACUGCAGAUCGGAAGAGCACACGU
  Kd: 7.35 ± 1.15 nM

B11: target 3 insG 3' of 9,insG 3' of 8 (mixed)
RNA 1: CACCCGUGCAAAAUUGCAGGGGUCUAAAACGACCUGAAUAUUUCAGAUCAAA
RNA 2: GGGAAUGGAUCCACAUCUACGAAUUCGUUUUUGAUCUGAAAUAGUGUCAGGUCUGCAGAUCGGAAGAGCACACGU
  Kd: 57 ± 6 nM

B12: target 3 insA 3' of 4,insU 3' of 3 (mixed)
RNA 1: CACCCGUGCAAAAUUGCAGGGGUCUAAAACGACCUGAAUAUUUCAGAUCAAA
RNA 2: GGGAAUGGAUCCACAUCUACGAAUUCGUUUUUGAUCUGAAAUAUUCAGAGUUCUGCAGAUCGGAAGAGCACACGU
  Kd: 72 ± 18.5 nM

B13: target 3 G4A,A11C (mixed)
RNA 1: CACCCGUGCAAAAUUGCAGGGGUCUAAAACGACCUGAAUAUUUCAGAUCAAA
RNA 2: GGGAAUGGAUCCACAUCUACGAAUUCGUUUUUGAUCUGAACUAUUCAAGUCUGCAGAUCGGAAGAGCACACGU
  Kd: 48.5 ± 11.5 nM
